Article PMC3580588, “Fully recombinant IgG2a Fc multimers (stradomers) effectively treat collagen-induced arthritis and prevent idiopathic thrombocytopenic purpura in mice” (Arthritis Research & Therapy, 2012)
Where two headings read alike, the source gives them in different places.

T1: recombinant mouse FcγRI (mouse, UniProt P26151 25-297)
T1 construct: mouse Fc gamma receptor I, recombinant; source: bought: R&D Systems
T1 sequence (looked up): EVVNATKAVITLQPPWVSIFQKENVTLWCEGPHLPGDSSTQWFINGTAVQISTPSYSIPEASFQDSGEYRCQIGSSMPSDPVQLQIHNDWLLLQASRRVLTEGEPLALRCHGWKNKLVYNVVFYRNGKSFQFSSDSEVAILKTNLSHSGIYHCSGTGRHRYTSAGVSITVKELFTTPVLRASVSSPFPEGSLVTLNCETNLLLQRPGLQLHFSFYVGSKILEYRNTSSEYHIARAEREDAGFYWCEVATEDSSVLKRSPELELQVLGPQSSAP

T2: recombinant mouse SIGN-R1 (mouse), Q8CJ91
T2 chain: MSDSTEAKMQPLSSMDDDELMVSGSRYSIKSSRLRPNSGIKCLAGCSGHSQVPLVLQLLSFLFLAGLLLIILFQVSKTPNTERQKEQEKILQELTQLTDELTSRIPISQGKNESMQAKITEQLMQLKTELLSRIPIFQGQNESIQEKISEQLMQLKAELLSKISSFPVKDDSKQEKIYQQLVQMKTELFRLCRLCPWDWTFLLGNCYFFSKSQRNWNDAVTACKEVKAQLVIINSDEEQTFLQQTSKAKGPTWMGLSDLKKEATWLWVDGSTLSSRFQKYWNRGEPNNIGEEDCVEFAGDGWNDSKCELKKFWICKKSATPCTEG

B1: recombinant murine IgG2a Fc (domain or fragment, mouse, UniProt P01863 98-330, looked up)
chain: EPRGPTIKPCPPCKCPAPNLLGGPSVFIFPPKIKDVLMISLSPIVTCVVVDVSEDDPDVQISWFVNNVEVHTAQTQTHREDYNSTLRVVSALPIQHQDWMSGKEFKCKVNNKDLPAPIERTISKPKGSVRAPQVYVLPPPEEEMTKKQVTLTCMVTDFMPEDIYVEWTNNGKTELNYKNTEPVLDSDGSYFMYSKLRVEKKNWVERNSYSCSVVHEGLHNHHTTKSFSRTPGK
notes: murine IgG2a Fc: hinge, CH2 and CH3 domains, no Fab region; Runs as a homodimer (45 kDa) on non-reducing SDS-PAGE, with a weaker band at about 90 kDa; source: recombinant, from a cDNA construct; host and purification are stated for the stradomers only (HEK293, protein A-derived column)

Tests used:
[1] = molecular target: recombinant mouse FcγRIV (mouse); experiment: SPR; Biacore 3000 or T100; receptors immobilised by amine coupling on CM4 (FcγRs) or CM5 (SIGN-R1) chips; samples 1,000 nM to 0.5 nM in HBS-EP at 20 μl/min; 1:1 Langmuir kinetic model; molecular mass of 50 kDa assigned to homodimer isolates and 150 kDa to all other preparations
[2] = molecular target: recombinant mouse FcγRIII (mouse) (UniProt P08508); experiment: as above
[3] = molecular target: recombinant mouse FcγRIIb (mouse) (UniProt P08101); experiment: as above
recombinant mouse FcγRI = molecular target: T1, recombinant mouse FcγRI; experiment: as above
[4] = molecular target: recombinant mouse SIGN-R1 (mouse) (UniProt Q8CJ91); experiment: as above
[5] = molecular target: recombinant mouse FcγRI (mouse) (UniProt P26151); experiment: as above
[6] = molecular target: B1; experiment: as above; details: both partners purified
[7] = molecular target: T2, recombinant mouse SIGN-R1 (mouse), …; experiment: as above
[8] = molecular target: the molecule itself; experiment: SDS-PAGE, nonreduced against reduced; 0.5 to 2 μg of purified protein on 4-12% Bis-Tris gels, Coomassie stain; multimers present under denaturing but not reducing conditions (covalently linked)

Kd [1] [nM] | Kd [2] [nM] | Kd [3] [nM] | Kd [6] [nM] | Molecule | further results
3.03 | 4.2 | 3.3 |  | 2A-2HC: stradomer with hinge of human IgG2 linked to the carboxy terminus of murine IgG2a Fc (unfractionated) (Fc fusion) | Kd (recombinant mouse FcγRI): 9.12 nM
7.6 | 4.4 | 3.4 |  | 2A-2HN: stradomer with hinge of human IgG2 linked to the amino terminus of murine IgG2a Fc (Fc fusion) | Kd [4]: 109 nM; Kd (recombinant mouse FcγRI): 16.3 nM
63.6 | 151 | 455 |  | 2A-ILZC: stradomer with the isoleucine zipper linked to the carboxy terminus of murine IgG2a Fc (Fc fusion) | Kd [5]: 63.4 nM
0.46 | 2.3 | 3.8 |  | 2A-ILZN: stradomer with the isoleucine zipper linked to the amino terminus of murine IgG2a Fc (Fc fusion) | Kd [5]: 6.71 nM
 |  |  | 27.8 | recombinant mouse FcγRIV (receptor, UniProt A0A0B4J1G0 21-203, looked up, mouse Fc gamma receptor IV, recombinant; source: bought: R&D Systems) GLQKAVVNLDPKWVRVLEEDSVTLRCQGTFSPEDNSIKWFHNESLIPHQDANYVIQSARVKDSGMYRCQTALSTISDPVQLEVHMGWLLLQTTKWLFQEGDPIHLRCHSWQNRPVRKVTYLQNGKGKKYFHENSELLIPKATHNDSGSYFCRGLIGHNNKSSASFRISLGDPGSPSMFPPWHQ | 
 |  |  | 289 | recombinant mouse FcγRIIb (receptor, UniProt P08101 30-210, looked up, mouse Fc gamma receptor IIb, recombinant; His tag and catalogue number are told for the biolayer interferometry only; also called His-tagged mouse FcγRIIb; source: bought: R&D Systems) THDLPKAVVKLEPPWIQVLKEDTVTLTCEGTHNPGNSSTQWFHNGRSIRSQVQASYTFKATVNDSGEYRCQMEQTRLSDPVDLGVISDWLLLQTPQLVFLEGETITLRCHSWRNKLLNRISFFHNEKSVRYHHYSSNFSIPKANHSHSGDYYCKGSLGRTLHQSKPVTITVQGPKSSRSLP | 
 |  |  | 248 | recombinant mouse FcγRIII (receptor, UniProt P08508 31-215, looked up, mouse Fc gamma receptor III, recombinant; His tag and catalogue number are told for the biolayer interferometry only; also called His-tagged mouse FcγRIII; source: bought: R&D Systems) ALPKAVVKLDPPWIQVLKEDMVTLMCEGTHNPGNSSTQWFHNGRSIRSQVQASYTFKATVNDSGEYRCQMEQTRLSDPVDLGVISDWLLLQTPQRVFLEGETITLRCHSWRNKLLNRISFFHNEKSVRYHHYKSNFSIPKANHSHSGDYYCKGSLGSTQHQSKPVTITVQDPATTSSISLVWYHT | 
 |  |  |  | 2A-ILZN: stradomer with the isoleucine zipper linked to the amino terminus of murine IgG2a Fc (Fc fusion, modifications not checked) EPRGPTIKPCPPCKCPAPNLLGGPSVFIFPPKIKDVLMISLSPIVTCVVVDVSEDDPDVQISWFVNNVEVHTAQTQTHREDYNSTLRVVSALPIQHQDWMSGKEFKCKVNNKDLPAPIERTISKPKGSVRAPQVYVLPPPEEEMTKKQVTLTCMVTDFMPEDIYVEWTNNGKTELNYKNTEPVLDSDGSYFMYSKLRVEKKNWVERNSYSCSVVHEGLHNHHTTKSFSRTPGK | Kd [7]: 134 nM
 |  |  |  | B1 | stoichiometry N [8]: 2; Kd (recombinant mouse FcγRI; both partners purified): 17.4 nM
 |  |  |  | 2A-ILZC: stradomer with the isoleucine zipper linked to the carboxy terminus of murine IgG2a Fc (Fc fusion, modifications not checked) EPRGPTIKPCPPCKCPAPNLLGGPSVFIFPPKIKDVLMISLSPIVTCVVVDVSEDDPDVQISWFVNNVEVHTAQTQTHREDYNSTLRVVSALPIQHQDWMSGKEFKCKVNNKDLPAPIERTISKPKGSVRAPQVYVLPPPEEEMTKKQVTLTCMVTDFMPEDIYVEWTNNGKTELNYKNTEPVLDSDGSYFMYSKLRVEKKNWVERNSYSCSVVHEGLHNHHTTKSFSRTPGK | Kd [7]: 43.9 nM
